Target: the molecule itself
Assay: SEC-MALS

B1: recombinant bovine αA-crystallin Y118D mutant (natural protein)
chain: MDIAIQHPWFKRTLGPFYPSRLFDQFFGEGLFEYDLLPFLSSTISPYYRQSLFRTVLDSGISEVRSDRDKFVIFLDVKHFSPEDLTVKVQEDFVEIHGKHNERQDDHGYISREFHRRDRLPSNVDQSALSCSLSADGMLTFSGPKIPSGVDAGHSERAIPVSREEKPSSAPSS
  stoichiometry N: 75 subunits

Source: paper PMC3001329 (Investigative ophthalmology & visual science, 2009)
